Patent US6638907 (BIOSTRATUM, dated 2003)
Each block holds one molecule with its values, some of them ahead of it.

Tests used:
[1] = molecular target: integrin α2 on HT-1080 cells (human) (UniProt P17301); assay: cell-based or functional assay
[2] = molecular target: integrin α6β1 on bovine adrenal microvascular endothelial (BCE) cells (bovine) (UniProt P53712); assay: cell-based or functional assay
[3] = molecular target: α6-subunit containing integrins on mouse IBE (Immortomouse brain capillary endothelial) cells; assay: cell-based or functional assay
[4] = molecular target: T1, disulfide-linked β1/γ1 dimer of r-laminin 8 (mouse β1, human γ1) (mouse; human, UniProt P02469 22-1786; P11047 34-1609); assay: non-reducing SDS-PAGE of anti-FLAG purified r-laminin 8
T1 construct: mature; also called covalently associated dimers; the dimers
Source text: The r-laminin 8 bound to anti-FLAG M2 matrix with high specificity. […] (FIG. 1) Under non-reducing conditions, the purified protein hardly entered the gel, which was to be expected as the predicted molecular weight for the mature trimer is at least 570 kD. A minor fraction of the purified trimer appeared as non-covalently associated (see discussion). In this fraction, the β1 and γ1 chains appeared as covalently associated dimers, whereas the α4 chain was non-covalently associated. Under reducing conditions, the protein appeared as a broad band at around 200 kD, which reacted on Western blots with α4, EHS, γ1, and anti-FLAG antibodies. The predicted molecular weights for mature α4, β1, and γ1 polypeptides are 200, 195, and 174 kD respectively. Laminins are heavily glycosylated, which may account for the slight discrepancy in molecular weight observed in SDS-PAGE.

Sequence of integrin α6β1 on bovine adrenal microvascular endothelial (BCE) cells (bovine) (P53712 21-798): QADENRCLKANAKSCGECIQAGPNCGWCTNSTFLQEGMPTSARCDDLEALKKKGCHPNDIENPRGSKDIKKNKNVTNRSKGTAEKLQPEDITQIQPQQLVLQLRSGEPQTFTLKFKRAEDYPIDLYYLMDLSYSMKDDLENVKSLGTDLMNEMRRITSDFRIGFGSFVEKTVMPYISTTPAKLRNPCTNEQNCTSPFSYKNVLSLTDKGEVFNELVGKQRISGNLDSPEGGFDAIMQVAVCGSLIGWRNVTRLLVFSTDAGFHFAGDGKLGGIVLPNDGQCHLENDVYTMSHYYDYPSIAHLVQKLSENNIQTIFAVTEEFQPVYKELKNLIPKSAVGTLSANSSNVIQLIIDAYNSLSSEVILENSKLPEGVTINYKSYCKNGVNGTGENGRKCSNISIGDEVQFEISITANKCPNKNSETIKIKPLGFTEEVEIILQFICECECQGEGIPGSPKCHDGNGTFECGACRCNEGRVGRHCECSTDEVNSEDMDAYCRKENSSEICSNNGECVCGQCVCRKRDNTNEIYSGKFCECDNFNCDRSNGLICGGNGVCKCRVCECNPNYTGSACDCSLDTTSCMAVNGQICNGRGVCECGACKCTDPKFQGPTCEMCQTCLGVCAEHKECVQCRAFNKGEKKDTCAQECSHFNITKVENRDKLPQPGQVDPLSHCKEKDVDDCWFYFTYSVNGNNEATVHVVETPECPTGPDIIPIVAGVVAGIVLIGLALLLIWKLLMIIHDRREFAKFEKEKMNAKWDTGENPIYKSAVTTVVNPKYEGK
Sequence of integrin α2 on HT-1080 cells (human) (P17301 30-1181): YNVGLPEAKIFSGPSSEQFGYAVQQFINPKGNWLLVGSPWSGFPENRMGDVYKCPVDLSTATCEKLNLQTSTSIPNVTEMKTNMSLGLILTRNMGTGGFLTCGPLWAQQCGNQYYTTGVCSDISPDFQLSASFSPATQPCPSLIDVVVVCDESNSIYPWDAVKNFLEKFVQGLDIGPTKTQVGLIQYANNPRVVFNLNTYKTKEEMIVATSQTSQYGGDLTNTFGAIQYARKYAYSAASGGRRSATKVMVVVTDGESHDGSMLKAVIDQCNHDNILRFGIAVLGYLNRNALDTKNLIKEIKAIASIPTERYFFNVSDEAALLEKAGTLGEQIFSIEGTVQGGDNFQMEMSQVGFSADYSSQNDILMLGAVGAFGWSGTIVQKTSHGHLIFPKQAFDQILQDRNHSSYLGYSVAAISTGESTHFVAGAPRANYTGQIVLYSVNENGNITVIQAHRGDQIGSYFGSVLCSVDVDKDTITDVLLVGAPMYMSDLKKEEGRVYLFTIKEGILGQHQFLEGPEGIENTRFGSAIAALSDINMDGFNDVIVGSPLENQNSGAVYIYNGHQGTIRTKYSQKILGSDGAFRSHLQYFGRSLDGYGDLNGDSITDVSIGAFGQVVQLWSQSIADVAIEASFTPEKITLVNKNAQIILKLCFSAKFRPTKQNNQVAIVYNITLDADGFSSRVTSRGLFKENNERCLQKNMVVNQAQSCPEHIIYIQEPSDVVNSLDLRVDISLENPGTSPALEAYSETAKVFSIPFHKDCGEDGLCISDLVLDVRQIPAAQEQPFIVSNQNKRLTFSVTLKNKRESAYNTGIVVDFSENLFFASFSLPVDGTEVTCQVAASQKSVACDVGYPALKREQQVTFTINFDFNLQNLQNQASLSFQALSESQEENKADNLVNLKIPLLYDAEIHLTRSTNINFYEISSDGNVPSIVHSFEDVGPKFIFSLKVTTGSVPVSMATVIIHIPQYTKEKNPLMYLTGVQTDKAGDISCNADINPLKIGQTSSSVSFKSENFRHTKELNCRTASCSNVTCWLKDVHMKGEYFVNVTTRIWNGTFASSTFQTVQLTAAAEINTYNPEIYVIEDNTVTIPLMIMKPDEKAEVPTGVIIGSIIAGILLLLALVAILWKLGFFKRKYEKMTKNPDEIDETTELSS

HT-1080 cell adhesion to Type IV collagen with anti-integrin α2 mAb, percent of control [1]: 50%
Molecule: collagen type IV from EHS-tumor (from UniProt P02463 28-1669; P08122 26-1707)

BCE cell adhesion to coated r-laminin 8 with anti-β1 mAb AIIB2, percent blocked [2]: 70% | IBE cell adhesion to coated r-laminin 8 with anti-α6 mAb, percent blocked [3]: 60%
Molecule: recombinant laminin 8 (human α4 chain with C-terminal FLAG epitope, mouse β1 chain, human γ1 chain) (from UniProt Q16363 25-1823; P02469 22-1786; P11047 34-1609)

binding result [4]: binds
B1: human laminin α4 chain containing a C-terminal FLAG epitope (other)
chain: ASGDDNAFPFDIEGSSAVGRQDPPETSEPRVALGRLPPAAEKCNAGFFHTLSGECVPCDCNGNSNECLDGSGYCVHCQRNTTGEHCEKCLDGYIGDSIRGAPQFCQPCPCPLPHLANFPESCYRKNGAVRCICNENYAGPNCERCAPGYYGNPFLIGSTCKKCDCSGNSDPNLIFEDCDEVTGQCRNCLRNTTGFKCERCAPGYYGDARIAKNCAVCNCGGGPCDSVTGECLEEGFEPPTGCDKCVWDLTDDLRLAALSIEEGKSGVLSVSSGAAAHRHVNEINATIYLLKTKLSERENQYALRKIQINNAENTMKSLLSDVEELVEKENQASRKGQLVQKESMDTINHASQLVEQAHDMRDKIQEINNKMLYYGEEHELSPKEISEKLVLAQKMLEEIRSRQPFFTQRELVDEEADEAYELLSQAESWQRLHNETRTLFPVVLEQLDDYNAKLSDLQEALDQALNYVRDAEDMNRATAARQRDHEKQQERVREQMEVVNMSLSTSADSLTTPRLTLSELDDIIKNASGIYAEIDGAKSELQVKLSNLSNLSHDLVQEAIDHAQDLQQEANELSRKLHSSDMNGLVQKALDASNVYENIVNYVSEANETAEFALNTTDRIYDAVSGIDTQIIYHKDESENLLNQARELQAKAESSSDEAVADTSRRVGGALARKSALKTRLSDAVKQLQAAERGDAQQRLGQSRLITEEANRTTMEVQQATAPMANNLTNWSQNLQHFDSSAYNTAVNSARDAVRNLTEVVPQLLDQLRTVEQKRPASNVSASIQRIRELIAQTRSVASKIQVSMMFDGQSAVEVHSRTSMDDLKAFTSLSLYMKPPVKRPELTETADQFILYLGSKNAKKEYMGLAIKNDNLVYVYNLGTKDVEIPLDSKPVSSWPAYFSIVKIERVGKHGKVFLTVPSLSSTAEEKFIKKGEFSGDDSLLDLDPEDTVFYVGGVPSNFKLPTSLNLPGFVGCLELATLNNDVISLYNFKHIYNMDPSTSVPCARDKLAFTQSRAASYFFDGSGYAVVRDIPRRGKFGQVTRFDIEVRTPADNGLILLMVNGSMFFRLEMRNGYLHVFYDFGFSSGRVHLEDTLKKAQINDAKYHEISIIYHNDKKMILVVDRRHVKSMDNEKMKIPFTDIYIGGAPPEILQSRALRAHLPLDINFRGCMKGFQFQKKDFNLLEQTETLGVGYGCPEDSLISRRAYFNGQSFIASIQKISFFDGFEGGFNFRTLQPNGLLFYYASGSDVFSISLDNGTVIMDVKGIKVQSVDKQYNDGLSHFVISSVSPTRYELIVDKSRVGSKNPTKGKIEQTQASEKKFYFGGSPISAQYANFTGCISNAYFTRVDRDVEVEDFQRYTEKVHTSLYECPIESSPLFLLHKKGKNLSKPKASQNKKGGKSKDAPSWDPVALKLPERNTPRNSHCHLSNSPRAIEHAYQYGGTANSRQEFEHLKGDFGAKSQFSIRLRTRSSHGMIFYVSDQEENDFMTLFLAHGRLVYMFNVGHKKLKIRSQEKYNDGLWHDVIFIRERSSGRLVIDGLRVLEESLPPTEATWKIKGPIYLGGVAPGKAVKNVQINSIYSFSGCLSNLQLNGASITSASQTFSVTPCFEGPMETGTYFSTEGGYVVLDESFNIGLKFEIAFEVRPRSSSGTLVHGHSVNGEYLNVHMKNGQVIVKVNNGIRDFSTSVTPKQSLCDGRWHRITVIRDSNVVQLDVDSEVNHVVGPLNPKPIDHREPVFVGGVPESLLTPRLAPSKPFTGCIRHFVIDGHPVSFSKAALVSGAVSINSCPAADYKDDDDK
notes: The α4 chain alone, as the non-crosslinked partner in the minor fraction of r-laminin 8; also called FLAG-tagged α4 chain
